Test results from US20030204066A1.

Biological target: human tumor necrosis factor-α (TNFα) (human) (UniProt P01375)
Assay: cell-based or functional assay

human tumor necrosis factor-α (TNFα) (human), sequence (P01375 77-233): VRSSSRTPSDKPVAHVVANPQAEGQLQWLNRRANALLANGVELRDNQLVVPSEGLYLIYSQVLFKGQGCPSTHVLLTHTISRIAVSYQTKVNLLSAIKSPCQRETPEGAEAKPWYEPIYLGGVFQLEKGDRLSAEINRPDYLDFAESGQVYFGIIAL

B1: chimeric mouse/human IgG1 anti-platelet mAb (7E3) (antibody, INN chains, looked up, V domains shown)
VH: EVQLQQSGTVLARPGASVKMSCEASGYTFTNYWMHWVKQRPGQGLEWIGAIYPGNSDTSYIQKFKGKAKLTAVTSTTSVYMELSSLTNEDSAVYYCTLYDGYYVFAYWGQGTLVTVSA
VL: EIVLTQSPVTLSVTPGDSVSLSCRASRDISNNLHWFQQTSHESPRLLIKYASQSMSGIPSRFSGSGSGTDFTLSINSVETEDFGMYFCQQTNSWPYTFGGGTKLEIK
modifications: chimeric IgG1
IL-6 secreted by FS-4 fibroblasts (ng/ml) at 0.3 ng/ml TNF, 4 µg/ml antibody: 1.6 ng/mL | IL-6 secreted by FS-4 fibroblasts (ng/ml) at 1.5 ng/ml TNF, 4 µg/ml antibody: 1.96 ng/mL | IL-6 secreted by FS-4 fibroblasts (ng/ml) at 7.5 ng/ml TNF, 4 µg/ml antibody: 2.16 ng/mL
